The values that follow come from article PMC9242859.

This experiment concerns the target C-terminally TAMRA-conjugated and N-terminally myristoylated preS1 peptide, amino acids 2-48 of the preS1 region (preS1 probe). Briefly: preS1 binding assay (fluorescent preS1 probe attachment to cells, fluorescence imaging). The following applies: Huh7 cells transiently expressing wild-type or mutant NTCP; parent: est. 1.0; read off a plot.

As to “wild-type NTCP transiently expressed in Huh7 cells (from UniProt Q14973) R84A; N87A”, the ratio to parent (fold vs control) stood at 0.46.
The value for “wild-type NTCP transiently expressed in Huh7 cells (from UniProt Q14973) R143A; D147A” was 1.1.
